Experimental data from patent publication US20230012273A1 (Boehringer Ingelheim, published 2023).

Assays:
[1] = biological target: T1, full-length human SIRPαV1 (NP_542970.1) on cells (human, UniProt P78324 31-504); assay: flow cytometry, CD14+ monocytes V1V1
T1 construct: one molecule for CHO-K1 and Expi-CHO transfectants (NP_542970.1) and for endogenous V1 on U-937 cells and on CD14+ monocytes of V1/V1 donors; also called CHO-hSIRPαV1; αV1 WT
Description: (§1) Antibody binding to primary human cells expressing SIRPα is evaluated by flow cytometry. Human peripheral blood mononuclear cells (PBMCs) from donors genotyped as homozygous for the SIRPα V1 allele, V2 allele, or heterozygous for both alleles are blocked with donkey IgG and incubated on ice with increasing concentrations of antibody for 60 minutes, washed and stained with AF647-conjugated donkey F(ab′)₂ anti-human IgG secondary reagent. […] Cells are washed, fixed, and analyzed by flow cytometry. Median fluorescent intensity of the CD14+ population was determined and used as a measure of antibody binding.

[2] = biological target: T2, full-length human SIRPγ (NP_061026.2) on cells (human, UniProt Q9P1W8 29-387); assay: flow cytometry, primary human CD3+ T cells (endogenous SIRPγ)
T2 construct: also called CHO-hSIRPγ; γ WT
Description: Antibody binding to primary human T cells expressing endogenous SIRPγ is evaluated by flow cytometry. Human peripheral blood mononuclear cells (PBMCs) are blocked with donkey IgG and incubated on ice with increasing concentrations of antibody for 60 minutes, washed and stained with AF647-conjugated donkey F(ab′)₂ anti-human IgG secondary reagent. […] Cells are washed, fixed, and analyzed by flow cytometry. Median fluorescent intensity of CD3+ gated population is determined and used as a measure of antibody binding.

[3] = biological target: ED-tagged human SIRPα V1 receptor on Jurkat signaling reporter cells (human, UniProt P78324 31-504); assay: cell-based or functional assay
[4] = biological target: ED-tagged human SIRPα V2 receptor on Jurkat signaling reporter cells (human, UniProt P78324 31-504); assay: cell-based or functional assay
[5] = biological target: T3, full-length human SIRPαV2 (CAA71403.1) on cells (human, UniProt P78324 31-504); assay: flow cytometry, CD14+ monocytes V2V2
T3 construct: one molecule for CHO-K1 and Expi-CHO transfectants (CAA71403.1) and for endogenous V2 on THP-1 cells and on CD14+ monocytes of V2/V2 donors; also called CHO-hSIRPαV2; αV2 WT
Description: as §1

[6] = biological target: T3, full-length human SIRPαV2 (CAA71403.1) …; assay: flow cytometry, competition with CD47 tetramer, monocytes V2V2
Description: Cells are washed, fixed, and analyzed by flow cytometry. Median fluorescent intensity of CD14+gated population is determined and used as a measure of CD47 binding.

[7] = biological target: T4, full-length human SIRPβL (NP_001129316.1) on cells (human, UniProt Q5TFQ8 30-398); assay: flow cytometry, U937 SIRPα-KO transfectants
T4 construct: one molecule for U937 SIRPα-KO transfectants (NP_001129316.1) and Expi-CHO transfectants (Q5TFQ8); also called SIRPβ1v3; βL WT
Description: (§2) Antibody binding to cells expressing full-length human SIRPβ1 (NP_006056.2) and SIRPβL (NP_001129316.1) is evaluated by flow cytometry. SIRPβ1- or SIRPβL-expressing U937^{SIRPα KO} cells are blocked with donkey IgG and incubated on ice with increasing concentrations of antibodies for 60 minutes, washed and stained with AF647-conjugated donkey F(ab′)₂ anti-human IgG secondary reagent. Cells are washed, fixed, and analyzed by flow cytometry. Median fluorescent intensity is determined and used as a measure of antibody binding.

[8] = biological target: T5, full-length human SIRPβL H→D on Expi-CHO cells (human, UniProt Q5TFQ8 30-398); assay: flow cytometry, Expi-CHO cells
T5 construct: the entry already carries the change (PDHV to PDDV); also called βL WT H→D
Description: (§3) Expi-CHO parental cells are transduced with lentiviruses containing either full-length wild-type human SIRPβL (Q5TFQ8) or full-length human SIRPβL with a single amino acid point mutation (Table 62) and sorted to achieve matching expression levels. These cells are blocked with donkey IgG and incubated on ice with increasing concentrations of antibodies for 60 minutes, washed and stained with AF647-conjugated donkey F(ab′)₂ anti-human IgG antibodies. Stained cells are washed, fixed, and analyzed by flow cytometry. Median fluorescent intensity is determined and used as a measure of antibody binding.
(§4) A single amino acid substitution (H→D) introduced within the loop region maintained, strengthened, or facilitated antibody binding to these cells (FIG. 34B, Table 63).

[9] = biological target: T6, full-length human SIRPγ N→D on Expi-CHO cells (human, UniProt Q9P1W8 29-387); assay: flow cytometry, Expi-CHO cells
T6 construct: the entry already carries the change (PENV to PEDV)
Description: as §3, with “SIRPγ ([…])” for “SIRPβL (Q5TFQ8)”, “SIRPγ” for “SIRPβL”, “with” for “with a single”, “mutations” for “mutation”, “64)” for “62)”

[10] = biological target: T7, full-length human SIRPγ EN→DD on Expi-CHO cells (human, UniProt Q9P1W8 29-387); assay: flow cytometry, Expi-CHO cells
T7 construct: the entry already carries the change (PENV to PDDV)
T7 chain: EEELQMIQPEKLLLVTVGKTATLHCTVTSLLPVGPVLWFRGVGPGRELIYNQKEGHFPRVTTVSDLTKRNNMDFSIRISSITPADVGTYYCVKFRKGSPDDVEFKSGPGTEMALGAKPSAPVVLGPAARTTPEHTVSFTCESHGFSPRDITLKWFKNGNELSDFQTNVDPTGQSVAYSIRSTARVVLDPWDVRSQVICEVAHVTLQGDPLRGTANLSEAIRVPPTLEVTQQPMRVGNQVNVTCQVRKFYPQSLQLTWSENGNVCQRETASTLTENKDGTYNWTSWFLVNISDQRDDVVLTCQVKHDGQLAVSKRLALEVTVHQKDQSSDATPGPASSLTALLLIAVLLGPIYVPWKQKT
Description: as §3, with “SIRPγ ([…])” for “SIRPβL (Q5TFQ8)”, “SIRPγ” for “SIRPβL”, “with” for “with a single”, “mutations” for “mutation”, “64)” for “62)”

[11] = biological target: T2, full-length human SIRPγ (NP_061026.2) …; assay: flow cytometry, Expi-CHO cells expressing full-length wild-type human SIRPγ
Description: […] These cells are blocked with donkey IgG and incubated on ice with increasing concentrations of antibodies for 60 minutes, washed and stained with AF647-conjugated donkey F(ab′)₂ anti-human IgG antibodies. Stained cells are washed, fixed, and analyzed by flow cytometry. Median fluorescent intensity is determined and used as a measure of antibody binding.

[12] = biological target: T8, full-length human SIRPβ1 (NP_006056.2) on cells (human, UniProt O00241 30-398); assay: flow cytometry, Expi-CHO cells
T8 construct: also called β1 WT
Description: (§5) These cells are blocked with donkey IgG and incubated on ice with increasing concentrations of antibodies for 60 minutes, washed and stained with AF647-conjugated donkey F(ab′)₂ anti-human IgG antibodies. Stained cells are washed, fixed, and analyzed by flow cytometry. Median fluorescent intensity is determined and used as a measure of antibody binding.

[13] = biological target: T9, full-length human SIRPγ E→D on Expi-CHO cells (human, UniProt Q9P1W8 29-387); assay: flow cytometry, Expi-CHO cells expressing full-length human SIRPγ E→D
T9 construct: the entry already carries the change (PENV to PDNV)
Description: as §3, with “SIRPγ ([…])” for “SIRPβL (Q5TFQ8)”, “SIRPγ” for “SIRPβL”, “with” for “with a single”, “mutations” for “mutation”, “64)” for “62)”

[14] = biological target: T8, full-length human SIRPβ1 (NP_006056.2) …; assay: flow cytometry, U937 SIRPα-KO transfectants
Description: as §2

[15] = biological target: T4, full-length human SIRPβL …; assay: flow cytometry, Expi-CHO cells expressing full-length wild-type human SIRPβL
Description: as §3, §4

[16] = biological target: T10, full-length human SIRPβ1 D→H on Expi-CHO cells (human, UniProt O00241 30-398); assay: flow cytometry, Expi-CHO cells expressing full-length human SIRPβ1 D→H
T10 construct: the entry already carries the change (PDDV to PDHV)
Description: as §5

[17] = biological target: T4, full-length human SIRPβL …; assay: flow cytometry, U937 SIRPα-KO cells expressing full-length human SIRPβL
Description: as §2

B1: Antibody G (antibody, human IgG4 S228P, kappa)
heavy: not shown
light: DIVMTQSPLSLPVTPGEPASISCKSSQSLLYSNGYNYLDWYLQRPGQSPQLLIYLGSNRASGVPDRFSGSGSGTDFTLKISRVEAEDVGVFYCMQALQTPLTFGGGTKVEIKRTVAAPSVFIFPPSDEQLKSGTASVVCLLNNFYPREAKVQWKVDNALQSGNSQESVTEQDSKDSTYSLSSTLTLSKADYEKHKVYACEVTHQGLSSPVTKSFNRGEC
B1 was tested, and the EC50 [1] was 0.3 nM, the binding result [2] was “no binding (tested: about 67 nM)” and the “Blockade of Cellular CD47-Mediated SIRPα Signaling; IC50” value (from here on “Blockade”) [3] was 0.04 nM. The “Blockade” value [4] was 0.03 nM, the EC50 [5] was 0.4 nM and the IC50 [6] was 0.22 nM. It also gave an EC50 [7] of 0.3 nM.

B2: Antibody A4 (antibody, human IgG1, kappa, L234A L235A, V domains shown)
VH: EVQLVESGGGLVQPGGSLRLSCAASGFTLSSYDMHWVRQAPGKGLEWVSAIGTAGDTYYTGSVKGRFTISRENAKNSLYLQMNSLRAADTAVYYCVRGGVWDDAFDIWGQGTMVTVSS
VL: DIQMTQSPSSLSASVGDRVTITCRASQGINNYAAWFQQKPGKAPKSLIYTASSLHSGVPSKFSGSGSGTDFTLTISSLQPEDFATYYCQQYVSYPYTFGQGTKLEIKR
In the case of B2, the EC50 [8] is reported as 0.5 nM, the “Blockade” value [3] is reported as 0.04 nM and the “Blockade” value [4] is reported as 0.05 nM. The EC50 [9] was 0.5 nM, the EC50 [10] was 0.7 nM and the binding result [11] was “no binding (tested: about 67 nM)”. The EC50 [12] was 1.5 nM, the binding result [13] was “no binding (tested: about 67 nM)” and the EC50 [14] was 0.2 nM. B2: no binding (tested: about 67 nM) [15]; no binding (tested: about 67 nM) [16].

B3: Antibody F (antibody, human IgG4 S228P, kappa)
heavy: not shown
light: DIQMTQSPSSLSASVGDRVTITCRASQDINNYLAWFQQKPGKAPKSLIYTASSLHSGVPSKFSGSGSGTDFTLTISSLQPEDFATYYCQQYVSYPYTFGQGTKLEIKRTVAAPSVFIFPPSDEQLKSGTASVVCLLNNFYPREAKVQWKVDNALQSGNSQESVTEQDSKDSTYSLSSTLTLSKADYEKHKVYACEVTHQGLSSPVTKSFNRGEC
With B3 the binding result [17] was “no binding (tested: about 200 nM)”, the binding result [2] was “no binding (tested: about 67 nM)” and the “Blockade” value [3] was 0.04 nM. The “Blockade” value [4] was 0.03 nM and the EC50 [14] was 0.2 nM.
